Results taken from US20210246218A1 (LYVGEN BIOPHARMA SUZHOU, published 2021).
Several values for one entry are separate records, joined by “and”; a condition that tells them apart may be missing. Equal entries are not always repeated.

How the values were obtained:
[1] = biological target: T1, cynomolgus monkey CD137 on cells (cynomolgus monkey, UniProt A9YYE7 24-254); assay: flow cytometry, cellular CD137; cynomolgus monkey CD137
T1 construct: whole, on cells; also called CHO-cynomolgus monkey CD137
Procedure: (§1) CHO cells over-expressing human or cynomolgus monkey CD137 and CHO parental cells were harvested by centrifugation at 1000 g for 3 minutes. The cells were resuspended in ice cold assay buffer at 2*10\hat{ }6/mL and transferred to 96-well V-bottom plate with 100 μL/well. […] The plate was mixed and incubated in the dark for 2 hours at 4° C. The cells were washed 3 times by centrifugation at 1000 g for 3 min and resuspended in ice cold assay buffer containing goat F(ab′)₂ anti-human IgG-Fc (PE), 100 μL/well. The plate was incubated in the dark for another 1 hour at 4° C. The cells were washed 2 times by centrifugation at 1000 g for 3 min and resuspended in ice cold assay buffer containing 2% PFA. The cells were then subjected to the flow cytometer immediately.
(§2) Mean fluorescence intensity (MFI) was calculated from the total cell population in the FCM experiments. Graphpad 7.0, “[Agonist] vs. response—Variable slope (four parameters)” was used to plot the binding MFI in dose response and to calculate FCM binding EC₅₀ values.

[2] = biological target: T2, human FcγRIIB-Ile232 on CHO-K1 cells (human, UniProt P31994 43-310); assay: flow cytometry on CHO-huFcγRIIB cells, anti-human Fc F(ab')2
T2 construct: whole, on cells; also called CHO-K1-huFcγRIIB-Ile232; CHO-K1-huFcγRIIB
T2 sequence (looked up): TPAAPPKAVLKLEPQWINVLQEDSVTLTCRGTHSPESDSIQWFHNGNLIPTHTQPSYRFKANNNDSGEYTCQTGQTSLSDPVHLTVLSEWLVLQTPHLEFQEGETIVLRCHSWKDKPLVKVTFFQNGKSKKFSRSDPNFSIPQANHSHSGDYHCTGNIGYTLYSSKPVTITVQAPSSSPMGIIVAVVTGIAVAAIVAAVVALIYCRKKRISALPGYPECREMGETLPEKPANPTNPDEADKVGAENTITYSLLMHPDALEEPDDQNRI
Procedure: The plate was mixed and incubated in the dark for 2 hours at 4° C.

[3] = biological target: T1, cynomolgus monkey CD137 on cells; assay: flow cytometry on CHO cells over-expressing cynomolgus CD137; average, n=6
Procedure: as §1, §2

[4] = biological target: T3, recombinant human CD137 receptor protein (human, UniProt Q07011 24-186); assay: ELISA, huCD137 coated, clone 3712 titrated; full sigmoid, plateau about 1.5
T3 construct: Coated on ELISA plates; also called recombinant human CD137 protein
Procedure: (§3) For the data shown in FIGS. 16C-D, chimeric CD137 receptor protein samples were diluted in DPBS to 5 μg/mL and then coated onto an ELISA plate (Corning, Catalog number: 9018, high binding) at 50 μL (0.25 μg) per well, and incubated at 4° C. overnight. The plate was decanted and washed once; assay diluent was added at 200 μL/well. After a 1-hour incubation at room temperature, the plate was washed with PBST one time. […] The plate was incubated 1 hour at room temperature and then washed three times with PBST. Goat anti-human IgG-H+L HRP-conjugated at 1:100,000 dilution or goat anti-mouse IgG (H+L) secondary antibody, HRP, 10 at 1:50,000 dilution was added to the plate at 100 μL/well. The plate was incubated 1 hour at room temperature followed by washing with PBST four times. The TMB substrate solution was added 100 μL/well. The color was permitted to develop for 15 minutes and then 100 μL/well 2N H2SO4 was added to terminate the reaction. Absorbance at 450 nm and 620 nm was determined by a Tecan F200 Pro reader.

Ly050 [5] = biological target: T4, Ly050; assay: ELISA, CD137 protein coated, clone 3712 titrated; full sigmoid, plateau about 1.9
T4 chain: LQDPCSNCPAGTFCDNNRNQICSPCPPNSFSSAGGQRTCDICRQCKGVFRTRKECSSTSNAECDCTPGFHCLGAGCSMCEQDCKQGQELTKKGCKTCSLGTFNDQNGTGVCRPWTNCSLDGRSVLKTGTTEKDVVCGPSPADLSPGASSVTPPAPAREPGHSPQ
Procedure: as §3

human CD137 on cells = biological target: T5, human CD137 on cells (human, UniProt Q07011 24-255); assay: flow cytometry on human PBMC pre-activated with anti-CD3, gate on CD8+ T cells (endogenous CD137)
T5 construct: whole, on cells; also called CHO-human CD137; CHO cells over-expressing human CD137
Procedure: To obtain activated T cells in human PBMC, a 24-well plate was coated with 300 μL DPBS containing 2 μg/mL AffiniPure goat anti-mouse IgG, Fcγ fragment specific at 4° C. overnight. The plate was washed 3 times with DPBS. The antibody OKT3 was added to the plate at 1 μg/mL, 100 μL/well. The plate was incubated at 37° C. for 1 hour. A freshly thawed vial of human PBMCs was transferred into a 50 mL tube containing 25 mL pre-warmed culture medium (RPMI1640 containing 10% FBS), and spun at 250 g for 10 min The cell pellet was resuspended in 2 mL complete culture medium (culture medium containing 50 uM 2-Me) and the cell density was adjusted to 3.3*10\hat{ }6 cells/mL in the complete culture medium and then 900 μL/well cell suspension was transferred to the plate. The culture was incubated at 37° C. with 5% CO₂ for about 48 hours. After the incubation, the cells were harvested and washed once with DPBS. The cell pellet was resuspended in cold assay buffer and the cell density was adjusted to 2*10\hat{ }6 cells/mL. 100 μL of the cell suspension was transferred to a 96-well v-bottom plate. […] The plate was incubated in the dark for 30 minutes at 4° C. […] After incubation in the dark for 5 minutes at 4° C., the cells were analyzed on the flow cytometer immediately.

Ly050 [6] = biological target: T4, Ly050; assay: ELISA, clone 3712-IgG1v coated, CD137 protein titrated (EC50 is a concentration of the CD137 protein); full sigmoid, plateau about 2.2
Procedure: (§4) The plate was decanted and washed once; assay diluent was added 200 μL/well. After one-hour incubation at room temperature, the plate was washed with PBST one time. CD137 receptor human/mouse chimeras were diluted in assay diluent to 100 or 10 μg/mL, and then a 4-fold serial dilution in assay diluent for 11 points to final concentrations of 100000, 25000, 6250, 1562.5, 390.63, 97.66, 24.41, 6.10, 1.53, 0.38 and 0.095 ng/mL or 10000, 2500, 625, 156.25, 39.06, 9.77, 2.44, 0.61, 0.15, 0.038 and 0.0095 ng/mL. The diluted CD137 receptor was added to the assay plate, 50 μL/well, in duplicate. The plate was incubated one hour at room temperature and then washed three times with PBST. Goat anti-human IgG-H+L HRP conjugated at 1:100,000 20 dilution was added to the plate at 100 μL/well. The plate was then incubated one hour at room temperature followed by washing with PBST four times. The TMB substrate solution was added at 100 μL/well. The color was allowed to develop for 15 minutes, and was stopped with 100 μL/well 2N H2SO4. Absorbance at 450 nm and 620 nm was determined by a Tecan F200 Pro reader.

Ly048 = biological target: T6, Ly048; assay: ELISA, clone 3712-IgG1v coated, CD137 protein titrated (EC50 is a concentration of the CD137 protein); curve only begins to rise: about 0.63 at 100000 ng/mL, no plateau, the fitted EC50 lies beyond the range tested
T6 chain: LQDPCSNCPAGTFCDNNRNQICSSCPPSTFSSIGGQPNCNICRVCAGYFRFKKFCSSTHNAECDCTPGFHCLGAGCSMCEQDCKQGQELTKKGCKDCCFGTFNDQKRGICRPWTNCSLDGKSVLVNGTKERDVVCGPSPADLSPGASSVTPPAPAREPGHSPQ
Procedure: as §4

T1 sequence (A9YYE7 entry or part of it): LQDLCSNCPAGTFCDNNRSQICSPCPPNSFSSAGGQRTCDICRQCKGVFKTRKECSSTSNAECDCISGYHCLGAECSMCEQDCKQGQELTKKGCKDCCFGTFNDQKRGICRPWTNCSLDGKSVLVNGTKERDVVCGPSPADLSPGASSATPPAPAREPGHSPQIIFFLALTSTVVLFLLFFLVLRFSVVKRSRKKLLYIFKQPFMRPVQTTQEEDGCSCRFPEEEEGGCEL

B1: Clone 3712-IgG1v (IgG1v/kappa) (antibody)
heavy: QVQLVQSGAEVKKPGASVKVSCKASGYTFAGFEMHWVRQAPGQGLEWMGAIDPKTGGTDYNQKFKDRVTMTRDTSISTAYMELSRLRSDDTAVYYCARDLGYFDVWGQGTLVTVSSASTKGPSVFPLAPSSKSTSGGTAALGCLVKDYFPEPVTVSWNSGALTSGVHTFPAVLQSSGLYSLSSVVTVPSSSLGTQTYICNVNHKPSNTKVDKKVEPKSCDKTHTCPPCPAPELLGPSVFLFPPKPKDTLMISRTPEVTCVVVDVEHEDPEVKFNWYVDGVEVHNAKTKPREEQYNSTYRVVSVLTVLHQDWLNGKEYKCKVSNKALPAPIEKTISKAKGQPREPQVYTLPPSREEMTKNQVSLTCLVKGFYPSDIAVEWESNGQPENNYKTTPPVLDSDGSFFLYSKLTVDKSRWQQGNVFSCSVMHEALHNHYTQKSLSLSPGK
light: DIQMTQSPSSLSASVGDRVTITCRASQDIRSNLNWYQQKPGGAVKLLIYYTSRLHSGVPSRFSGSGSGTDYTLTISSLQPEDFATYFCQQSEKLPRTFGGGTKVEIRRTVAAPSVFIFPPSDEQLKSGTASVVCLLNNFYPREAKVQWKVDNALQSGNSQESVTEQDSKDSTYSLSSTLTLSKADYEKHKVYACEVTHQGLSSPVTKSFNRGEC
notes: copies: 2 + 2
EC50 [1]: ~0.3 nM | binding result [2]: binds | EC50 [3]: 0.26 nM and 0.0369 µg/mL | EC50 [4]: 0.0572 µg/mL | EC50 (Ly050 [5]): 0.0722 µg/mL | EC50 (read off the curve) (human CD137 on cells): ~0.03 µg/mL | EC50 (Ly050 [6]): 0.00339 µg/mL | EC50 (Ly048): 486 µg/mL
